Results on two sequences are retold here after PMC4411124.

In data set [1] the target is T1, SoxR (Stenotrophomonas maltophilia K279a) (UniProt B2FRT7).
T1 sequence: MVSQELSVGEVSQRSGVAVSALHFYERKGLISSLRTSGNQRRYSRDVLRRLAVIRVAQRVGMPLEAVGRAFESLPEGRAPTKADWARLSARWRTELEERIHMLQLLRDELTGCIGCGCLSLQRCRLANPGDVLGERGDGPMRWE
In words: EMSA.

Data set [2] concerns the target T1, SoxR (Stenotrophomonas maltophilia K279a). Nature of the data set: competition.

With “GCGGATCACCGCCAGCCGGCGCAGCACGTCGCGGCTGTAGCGGCGCTGGTTACCCGAAGTGCGCAGGCTGCTGATCAGCCCCTTGCGCTCGTAGAAGTGCAGCGCGGAAACCGCCACGCCACTGCGCTGGGAGACTTCGCCAACGCTCAGTTCCTGGGACACCATTGCTTGAAAGACCAGTACTGTGAGGTGTCATGCTGCTATCTTCGCCGTCGGTTGACAAGCGCGGCCCGCATCTGACCCGTATGACCCCGACCCTC (double strand) [mfsA-soxR promoter fragment, 258 bp, mutated SoxR box]”, the binding entry in data set [1] is listed as “no binding”.

Take “GAGGGTCGGGGTCATACGGGTCAGATGCGGGCCGCGCTTGTCAACCGACGGCGAAGATAGCAGCATGACACCTCAACTGCAGTTGAGGTCAAGCAATGGTGTCCCAGGAACTGAGCGTTGGCGAAGTCTCCCAGCGCAGTGGCGTGGCGGTTTCCGCGCTGCACTTCTACGAGCGCAAGGGGCTGATCAGCAGCCTGCGCACTTCGGGTAACCAGCGCCGCTACAGCCGCGACGTGCTGCGCCGGCTGGCGGTGATCCGC (double strand) [mfsA-soxR promoter fragment, 258 bp, wild type]”: the binding result in data set [1] and in data set [2] was “binds” each time.
